The record followed here is the Human Domainome abundance scans (Beltran et al. 2025).

± gives the uncertainty stated by the source.

The nature of the first series: abundance fitness (aPCA) (normalised: wild type 0, dead -1); higher = more abundant; growth selection in yeast, the domain comes from the species named. To be noted: Bacillus caldolyticus.
As for Cold shock protein CspB E21R, P41016, the abundance fitness was 0.011 ± 0.036.
Cold shock protein CspB G22P, P41016 yielded an abundance fitness of 0.032 ± 0.047.
Take Cold shock protein CspB I18R, P41016: the abundance fitness is -0.908 ± 0.044.
The same measure, in the same setting: next, Cold shock protein CspB S24E, P41016: 0.012 ± 0.053; Cold shock protein CspB V20G, P41016: 0.004 ± 0.039.

Staying with this series, now noted: Homo sapiens.
With Gamma-crystallin C A162C, P07315, the abundance fitness is -0.092 ± 0.14.
Same read-out and setting: to Gamma-crystallin C L167W, P07315 belongs -0.575 ± 0.23; to Gamma-crystallin C R153W, P07315, -0.775 ± 0.22; to “Scaffold attachment factor B1 A41C, Q15424”, -0.317 ± 0.08.
For “Scaffold attachment factor B1 A41D, Q15424”, the abundance fitness was -0.204 ± 0.064.
The same measure, in the same setting: next, “Scaffold attachment factor B1 A41E, Q15424”: -0.049 ± 0.062; “Scaffold attachment factor B1 A41F, Q15424”: -0.145 ± 0.053; “Scaffold attachment factor B1 A41G, Q15424”: -0.095 ± 0.063.
Still for that read-out and setting: to “Scaffold attachment factor B1 A41H, Q15424” belongs -0.449 ± 0.11; to “Scaffold attachment factor B1 A41I, Q15424”, -0.114 ± 0.073; to “Scaffold attachment factor B1 A41K, Q15424”, -0.205 ± 0.068.
The same measure, in the same setting: next, “Scaffold attachment factor B1 A41L, Q15424”: -0.12 ± 0.055.
“Scaffold attachment factor B1 A41M, Q15424” returned an abundance fitness of -0.142 ± 0.061.
The same measure, in the same setting: next, “Scaffold attachment factor B1 A41N, Q15424”: -0.311 ± 0.1.
On the same count and under the same terms, next, “Scaffold attachment factor B1 A41Q, Q15424”: -0.257 ± 0.072; “Scaffold attachment factor B1 A41R, Q15424”: -0.12 ± 0.051.
For “Scaffold attachment factor B1 A41S, Q15424”, the abundance fitness is -0.128 ± 0.053.
Same read-out and setting: next, “Scaffold attachment factor B1 A41T, Q15424”: -0.164 ± 0.059; “Scaffold attachment factor B1 A41V, Q15424”: -0.105 ± 0.053.
“Scaffold attachment factor B1 A41W, Q15424” displayed an abundance fitness of -0.122 ± 0.049.
On the same count and under the same terms, to “Scaffold attachment factor B1 A41Y, Q15424” belongs -0.176 ± 0.069; to “Scaffold attachment factor B1 A64C, Q15424”, -0.016 ± 0.077.
Still for that read-out and setting: next, “Scaffold attachment factor B1 A64D, Q15424”: -0.601 ± 0.11; “Scaffold attachment factor B1 A64F, Q15424”: -0.317 ± 0.089; “Scaffold attachment factor B1 A64G, Q15424”: -0.527 ± 0.053.
On to “Scaffold attachment factor B1 A64H, Q15424”, for which the abundance fitness is -0.132 ± 0.082.
“Scaffold attachment factor B1 A64I, Q15424” displayed an abundance fitness of -0.109 ± 0.073.
“Scaffold attachment factor B1 A64K, Q15424”: the abundance fitness is -0.228 ± 0.08.
“Scaffold attachment factor B1 A64L, Q15424” showed an abundance fitness of -0.146 ± 0.052.
Substance “Scaffold attachment factor B1 A64M, Q15424” gave an abundance fitness of -0.416 ± 0.1.
On the same count and under the same terms, next, “Scaffold attachment factor B1 A64N, Q15424”: -0.551 ± 0.15.
In the case of “Scaffold attachment factor B1 A64P, Q15424”, the abundance fitness is -0.603 ± 0.087.
On the same count and under the same terms, to “Scaffold attachment factor B1 A64Q, Q15424” belongs -0.162 ± 0.086.
The substance “Scaffold attachment factor B1 A64R, Q15424” yielded an abundance fitness of -0.236 ± 0.048.
For “Scaffold attachment factor B1 A64T, Q15424”, the abundance fitness is -0.125 ± 0.078.
Still for that read-out and setting: to “Scaffold attachment factor B1 A64W, Q15424” belongs -0.249 ± 0.062; to “Scaffold attachment factor B1 A64Y, Q15424”, -0.519 ± 0.12.
Still for that read-out and setting: next, “Scaffold attachment factor B1 D33A, Q15424”: -0.303 ± 0.049; “Scaffold attachment factor B1 D33C, Q15424”: -0.354 ± 0.061.
Same read-out and setting: to “Scaffold attachment factor B1 D33E, Q15424” belongs -0.209 ± 0.078; to “Scaffold attachment factor B1 D33F, Q15424”, -0.715 ± 0.063.
In turn, “Scaffold attachment factor B1 D33G, Q15424” gave an abundance fitness of -0.281 ± 0.053.
As to “Scaffold attachment factor B1 D33H, Q15424”, the abundance fitness is -0.262 ± 0.1.
In turn, “Scaffold attachment factor B1 D33I, Q15424” came in with an abundance fitness of -0.88 ± 0.12.
In the case of “Scaffold attachment factor B1 D33K, Q15424”, the abundance fitness was -0.451 ± 0.069.
Still for that read-out and setting: next, “Scaffold attachment factor B1 D33L, Q15424”: -0.437 ± 0.06.
With “Scaffold attachment factor B1 D33M, Q15424”, the abundance fitness is -0.235 ± 0.055.
Same read-out and setting: to “Scaffold attachment factor B1 D33N, Q15424” belongs -0.291 ± 0.068; to “Scaffold attachment factor B1 D33P, Q15424”, -0.726 ± 0.069; to “Scaffold attachment factor B1 D33Q, Q15424”, -0.192 ± 0.069.
Still for that read-out and setting: next, “Scaffold attachment factor B1 D33S, Q15424”: -0.15 ± 0.054; “Scaffold attachment factor B1 D33T, Q15424”: -0.308 ± 0.077.
Consider “Scaffold attachment factor B1 D33V, Q15424”, for which the abundance fitness was -0.493 ± 0.054.
On the same count and under the same terms, next, “Scaffold attachment factor B1 D33W, Q15424”: -0.644 ± 0.062; “Scaffold attachment factor B1 D33Y, Q15424”: -0.813 ± 0.099.
On the same count and under the same terms, to “Scaffold attachment factor B1 D38A, Q15424” belongs -0.388 ± 0.056; to “Scaffold attachment factor B1 D38E, Q15424”, -0.095 ± 0.059.
On the same count and under the same terms, to “Scaffold attachment factor B1 D38F, Q15424” belongs -0.874 ± 0.084; to “Scaffold attachment factor B1 D38G, Q15424”, -0.558 ± 0.051.
“Scaffold attachment factor B1 D38H, Q15424” registered an abundance fitness of -0.428 ± 0.089.
Same read-out and setting: to “Scaffold attachment factor B1 D38I, Q15424” belongs -0.767 ± 0.11; to “Scaffold attachment factor B1 D38L, Q15424”, -0.683 ± 0.055.
For “Scaffold attachment factor B1 D38M, Q15424”, the abundance fitness was -0.536 ± 0.071.
Same read-out and setting: to “Scaffold attachment factor B1 D38N, Q15424” belongs -0.414 ± 0.092.
Same read-out and setting: next, “Scaffold attachment factor B1 D38P, Q15424”: -0.899 ± 0.057; “Scaffold attachment factor B1 D38Q, Q15424”: -0.107 ± 0.069; “Scaffold attachment factor B1 D38R, Q15424”: -0.618 ± 0.055.
Same read-out and setting: to “Scaffold attachment factor B1 D38S, Q15424” belongs -0.446 ± 0.059; to “Scaffold attachment factor B1 D38T, Q15424”, -0.307 ± 0.072.
“Scaffold attachment factor B1 D38V, Q15424” came in with an abundance fitness of -0.629 ± 0.052.
On the same count and under the same terms, to “Scaffold attachment factor B1 D38W, Q15424” belongs -0.742 ± 0.067.
Same read-out and setting: next, “Scaffold attachment factor B1 D38Y, Q15424”: -0.913 ± 0.12.
“Scaffold attachment factor B1 D49A, Q15424” returned an abundance fitness of -0.329 ± 0.071.
The same measure, in the same setting: next, “Scaffold attachment factor B1 D49E, Q15424”: -0.346 ± 0.077; “Scaffold attachment factor B1 D49F, Q15424”: -0.762 ± 0.13.
The substance “Scaffold attachment factor B1 D49G, Q15424” showed an abundance fitness of -0.444 ± 0.062.
As for “Scaffold attachment factor B1 D49H, Q15424”, the abundance fitness was -0.396 ± 0.097.
As to “Scaffold attachment factor B1 D49I, Q15424”, the abundance fitness was -0.514 ± 0.1.
Same read-out and setting: to “Scaffold attachment factor B1 D49K, Q15424” belongs -0.275 ± 0.072.
As for “Scaffold attachment factor B1 D49L, Q15424”, the abundance fitness was -0.393 ± 0.061.
Same read-out and setting: next, “Scaffold attachment factor B1 D49M, Q15424”: -0.464 ± 0.062; “Scaffold attachment factor B1 D49N, Q15424”: -0.14 ± 0.061; “Scaffold attachment factor B1 D49P, Q15424”: -0.285 ± 0.068.
Same read-out and setting: next, “Scaffold attachment factor B1 D49Q, Q15424”: -0.328 ± 0.072; “Scaffold attachment factor B1 D49R, Q15424”: -0.344 ± 0.052; “Scaffold attachment factor B1 D49S, Q15424”: -0.219 ± 0.062.
The substance “Scaffold attachment factor B1 D49T, Q15424” returned an abundance fitness of -0.552 ± 0.081.
Still for that read-out and setting: to “Scaffold attachment factor B1 D49V, Q15424” belongs -0.408 ± 0.057; to “Scaffold attachment factor B1 D49Y, Q15424”, -0.5 ± 0.057.
Same read-out and setting: next, “Scaffold attachment factor B1 D67C, Q15424”: -0.244 ± 0.063; “Scaffold attachment factor B1 D67E, Q15424”: -0.152 ± 0.089; “Scaffold attachment factor B1 D67F, Q15424”: -0.293 ± 0.082.
